Values of other authors, collected in patent publication US5998408A, “Triterpene derivatives with immunosuppressant activity” (Merck & Co., Inc., priority 1997, dated 1999).

Molecular target: T1, Kv 1.3 channels (CHO cells transfected with Kv 1.3 channels) (Homo sapiens, UniProt P22001)
T1 construct: expressed in transfected cells; host or cells: CHO cells
Details: stated property of the reference blocker used to set the efflux window

T1 sequence (P22001 whole entry): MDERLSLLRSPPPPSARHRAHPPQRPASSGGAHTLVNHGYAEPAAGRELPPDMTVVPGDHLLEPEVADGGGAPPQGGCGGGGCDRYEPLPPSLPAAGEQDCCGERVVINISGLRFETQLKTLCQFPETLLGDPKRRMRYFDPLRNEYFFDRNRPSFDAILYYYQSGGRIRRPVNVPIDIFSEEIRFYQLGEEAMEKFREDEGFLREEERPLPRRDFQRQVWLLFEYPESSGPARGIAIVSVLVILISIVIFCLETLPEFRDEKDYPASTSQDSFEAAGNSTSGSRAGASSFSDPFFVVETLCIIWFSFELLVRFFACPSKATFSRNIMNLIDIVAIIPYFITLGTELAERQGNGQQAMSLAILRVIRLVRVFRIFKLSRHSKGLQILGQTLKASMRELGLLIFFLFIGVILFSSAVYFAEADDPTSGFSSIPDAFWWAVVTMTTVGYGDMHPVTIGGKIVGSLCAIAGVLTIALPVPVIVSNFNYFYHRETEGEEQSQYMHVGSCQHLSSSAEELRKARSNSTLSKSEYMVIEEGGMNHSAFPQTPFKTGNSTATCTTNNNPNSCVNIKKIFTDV

In the case of “margatoxin (TIINVKCTSPKQCLPPCKAQFGQSAGAKCMNGKCKCYPH; UniProt P40755 1-39, looked up)”, the IC50 is listed as 100 pM.
